Laboratory results taken from patent US5792640.
pKd: −log10 of the molar value.

What was measured:
[1] = test system: ZF-QQR-FN (consensus zinc fingers-FokI cleavage domain fusion) (synthetic construct); assay: cleavage_in_vitro; settings: DNA strand cleaved, ~100-fold slower than duplex; RNA strand not cleaved
[2] = test system: ZF-QQR (synthetic construct); assay: EMSA; settings: CITED ref 34; exact hybrid used in cited work not given; cited from earlier work
[3] = test system: ZF-QQR-FN (consensus zinc fingers-FokI cleavage domain fusion) (synthetic construct); assay: EMSA; settings: apparent Kd
[4] = target: ZF-Sp1C (synthetic construct) (UniProt P08047); assay: EMSA; settings: CITED ref 34; DNA-RNA hybrid; cited from earlier work
Sequence of ZF-Sp1C (synthetic construct) (P08047 626-708): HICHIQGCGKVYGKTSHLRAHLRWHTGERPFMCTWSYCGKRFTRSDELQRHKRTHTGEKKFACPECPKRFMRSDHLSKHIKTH

Row | Sequence | activity [1] | pKd [2] | pKd [3] | pKd [4]
1 | GAGCTCCTTTGGATCCAAGCTTCCCGGGGAAGAATTCGAGGAGGCTCTCGAGGTCGACTTCCTCTAGAGGTACC / GGUACCUCUAGAGGAAGUCGACCUCGAGAGCCUCCUCGAAUUCUUCCCCGGGAAGCUUGGAUCCAAACCAGCUC [QQR site DNA-RNA hybrid] | 1% | 8.55 | 8.52 | –
2 | GGGGCGGGG [Sp1C site DNA-RNA hybrid] | – | – | – | 7.40
